{"source": "the nanobody polyreactivity screen of Harvey et al. (2022)", "data": [{"experiment": "yeast display, Sf9 membrane polyspecificity reagent, FACS + sequencing; frameworks hold sequencing errors", "method_in_brief": "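A nanobody's polyreactivity label depends on the gate it was sorted from. Yeast display cells were stained with 10% biotinylated, detergent-solubilized Sf9 membrane reagent for 1 hour at 4 °C, enriched on streptavidin microbeads and sorted by FACS. The low and high (top ~1%) gates were set on anti-HA fluorescence for expression and streptavidin fluorescence for reagent binding.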", "values": [{"sequence": "QVQLVESGGGLVQAGGSLRLSCAASGRIFRGYGMAWYRQAPGKERELVAAISRGGNTDYADSVKGRFTISRDNANNTVYLQMNSLKPEETAVYYCAVGYVSYRKLYLYNSWGQGTQVTVSS", "polyreactivity (PSR sort gate)": "high polyreactivity"}, {"sequence": "QVQLVESGGGLVQAGGSLRLSCAASGRIFRGYTMGGYRQAPGKERELVADITKRGGSTDYADSVKGRFTISRDNAKNTVYLQMNSLKPEDTEVYSCAARGPTFGVDYGYWGQGTQVTGSS", "polyreactivity (PSR sort gate)": "high polyreactivity"}, {"sequence": "QVQLVESGGGLVQAGGSLRLSCAASGRIFRGYVMGWYIQAPGKERELVAAISINGGRTYYADSVKGRFTISRDNAKNTVYLQMNSLKPEDTAVYYCAAEPIYFRGLYYYWGLGTQVTVSS", "polyreactivity (PSR sort gate)": "high polyreactivity"}, {"sequence": "QVQLVESGGGLVQAGGSLRLSCAASGRIFRHNAMGWYRQAPGKERELVDAITSRGGTYNAHSVKGRFTISRDNAKITVFLQMTSLNPEETAVYFCNADEALYSSGNKYDYWGQGTQVSVSS", "polyreactivity (PSR sort gate)": "low polyreactivity"}, {"sequence": "QVQLVESGGGLVQAGGSLRLSCAASGRIFRHYAMGWYRQAPGKERELVAAISGGGGRTYYADSVKGRFTISRDNAKNTVYLQMNSLKPEDTAVYYCAKRPSYAYSRYRKGHDYWGQGTQVTVSS", "polyreactivity (PSR sort gate)": "high polyreactivity"}, {"sequence": "QVQLVESGGGLVQAGGSLRLSCAASGRIFRINGMGWYRQAPGKEREFVAAITSGGGTYYADSVKGRFTISRDNAKNTVYLQMNSLKPEDTAVYYCAAPSYRTRYYYWGQGTQVTVSS", "polyreactivity (PSR sort gate)": "high polyreactivity"}, {"sequence": "QVQLVESGGGLVQAGGSLRLSCAASGRIFRINGMGWYRQAPGKEREFVAAITSGGGTYYADTVKGRFTISRDNAKNTVYLQMNSLKPEDTAVYYCAAPSYRTRYYYWGQGTQVTVSS", "polyreactivity (PSR sort gate)": "high polyreactivity"}, {"sequence": "QVQLVESGGGLVQAGGSLRLSCAASGRIFRIYAMGWNRQAPGKERELVARLTYSGGSTYYADSVKGRFTISRDNAKNTVYLQMNSLKPEDTAVYYCAADWLGYQYGYWGQGTQVTVSS", "polyreactivity (PSR sort gate)": "low polyreactivity"}, {"sequence": "QVQLVESGGGLVQAGGSLRLSCAASGRIFRIYAMGWYRQAPGKERELVASISDRGTRTYYADSVKGRFTISRDNAKNTVYLQMNSLKPEDTAVYYCAASTYTKFHTYYKSQASDYWGQGTQVTVSS", "polyreactivity (PSR sort gate)": "high polyreactivity"}, {"sequence": "QVQLVESGGGLVQAGGSLRLSCAASGRIFRKYAMGWYRQAPGKERELVAAINWSGGSTYYADSVKGRFTISRDNAKNTVYLQMNSLKPEDTAVYYCAARSPKAERDYWGQGTQVTVSS", "polyreactivity (PSR sort gate)": "high polyreactivity"}, {"sequence": "QVQLVESGGGLVQAGGSLRLSCAASGRIFRKYAMGWYRQAPGKERELVAAISGSGGSTTYADSVKGRFTISRDNAKNTVYLQMNSLKPEDTAVYYCAARGYSLYGYPYYYWGQGTQVSVSS", "polyreactivity (PSR sort gate)": "high polyreactivity"}, {"sequence": "QVQLVESGGGLVQAGGSLRLSCAASGRIFRKYAMGWYRQAPGKERELVAGITWRGTSTYYADSVKGRFTISRDNAKNTVYLQMNSLKPEDTAVYYCAAEWKGYYVHDYWGQGTQVTVSS", "polyreactivity (PSR sort gate)": "high polyreactivity"}, {"sequence": "QVQLVESGGGLVQAGGSLRLSCAASGRIFRKYTMGWYRQAPGKERELVAAITWSGGSTYYADSVKGRFTISRDNAKNTVYLQMNSLKPEDTAVYYCAARSIGGYRAVDTYYYWGHGTQVTVSS", "polyreactivity (PSR sort gate)": "high polyreactivity"}, {"sequence": "QVQLVESGGGLVQAGGSLRLSCAASGRIFRKYVMGWYRQAPGKERELVASITTSGDSTYYADSVKGRFTISRDNAKNTVYLQMNSLKPEDTAVYYCAARSYRGRRYDYWGQGTQVTVSS", "polyreactivity (PSR sort gate)": "high polyreactivity"}, {"sequence": "QVQLVESGGGLVQAGGSLRLSCAASGRIFRLYAMGWYRQAPGKEREFVATITWIGGRTYYADSVKGRFTISRDTAKNTVYLQMNSLKPEDTAVYYCAADPGYTYEYWGQGTQVTVSS", "polyreactivity (PSR sort gate)": "low polyreactivity"}, {"sequence": "QVQLVESGGGLVQAGGSLRLSCAASGRIFRLYVMGWYRQAPGKERELVATISSRGGSTYYADSVKGRFTISRDNAKNTVYLQMNSLKPEDTAVYYCAAVSRYRYGYDYWGQGTQVTVSS", "polyreactivity (PSR sort gate)": "high polyreactivity"}, {"sequence": "QVQLVESGGGLVQAGGSLRLSCAASGRIFRPYAMGWYRQAPGKERELVASMSWRGSSTYYADSVKGRFTISRDNAQNTVYLQMNSLKPEDTAVYYCAARRYPTSGYGYWGQGTQVTVSS", "polyreactivity (PSR sort gate)": "high polyreactivity"}, {"sequence": "QVQLVESGGGLVQAGGSLRLSCAASGRIFRPYTMVWSRQAPGKERELVAAINSSGGRTYYADSVKGRFTISRDNAKNTVYLEMNSLKPEDTAVYYCAVGWVFYRASNMNYWGQGTQVTVSS", "polyreactivity (PSR sort gate)": "high polyreactivity"}, {"sequence": "QVQLVESGGGLVQAGGSLRLSCAASGRIFRQKAMGWYRQAPGKERELVASISSGGNTYYADSVKGRFTISRDNAKNNVYLQMNSLKPEDTAVYYCAAAKQRYYRWWTTPGYDYWGQGTQVTVSS", "polyreactivity (PSR sort gate)": "low polyreactivity"}, {"sequence": "QVQLVESGGGLVQAGGSLRLSCAASGRIFRRNAMGWSRQAPGNERELVAAISSSGGRTYYADSVKGRFTISRDNAKNTVYLEMNSLKPEDTAVYYCAARIRTVAHVDYDYWGQGTQVTVSS", "polyreactivity (PSR sort gate)": "high polyreactivity"}, {"sequence": "QVQLVESGGGLVQAGGSLRLSCAASGRIFRRNAMGWYRQAPGKERDLVAAITYSGTRTYYADSVKGRFTISRDNAKITVYLQMNSLKPEDTAVYYCNAGVGYFVGTYYGFLPYDYWGQGTQVTVSS", "polyreactivity (PSR sort gate)": "high polyreactivity"}, {"sequence": "QVQLVESGGGLVQAGGSLRLSCAASGRIFRRNAMGWYRQAPGKEREFVATITSGGSTFYADSVKGRFTISRDNAKNTVYLQMNSLIPEDTAVYYCAAPYYNTPFHTPNYSWGQGTQVTVSS", "polyreactivity (PSR sort gate)": "low polyreactivity"}, {"sequence": "QVQLVESGGGLVQAGGSLRLSCAASGRIFRRNAMGWYRQAPGKERELVAAISTRGSSTYYADSVKGRFTISRDNAKNTVYLQMNSLKPEDTAVYYCAADAYFIYSRYWYDYWGQGTQVTVSS", "polyreactivity (PSR sort gate)": "high polyreactivity"}, {"sequence": "QVQLVESGGGLVQAGGSLRLSCAASGRIFRRNVMGWYRQAPGKERELVAAITGSGSSTYYADSVKGRFTISRDNAKNTVYLQMNSLKPVDTAVYYCATKWRFKLGDYWGQGTQVTVSS", "polyreactivity (PSR sort gate)": "high polyreactivity"}, {"sequence": "QVQLVESGGGLVQAGGSLRLSCAASGRIFRRYAMGWYRQAPGKERELVAAINGRGTTTYYADSVKGRFTISRDNAKNTVYLQMNSLKPEDTAVYYCAAENTIRYDREYDYWGQGNQVTVSS", "polyreactivity (PSR sort gate)": "high polyreactivity"}, {"sequence": "QVQLVESGGGLVQAGGSLRLSCAASGRIFRRYAMGWYRQAPGKERELVAAISSTGGNTYYADSVKGRFTISRDNAKNTVYLQMNSLKPEDTAVYYCATRAFYLRGNGYWGQGTQVTVSS", "polyreactivity (PSR sort gate)": "high polyreactivity"}, {"sequence": "QVQLVESGGGLVQAGGSLRLSCAASGRIFRSNAIGWYRQAPGKERELVSVITWCGGSTYYADSVKGRFTITRDTAKNTVYIQMNSLKPEDTAVYYCAKRRAAVNGRSYYYYWGQGTQVTVSS", "polyreactivity (PSR sort gate)": "high polyreactivity"}, {"sequence": "QVQLVESGGGLVQAGGSLRLSCAASGRIFRSNAMGWYRQAPGKERELVATITSSGGRTYYADSVKGRFTISRDNAKNTVYLQMNSLKPEDTAVYYCNAQQRTRGQKAQWVRDEYWGQGTQVTVSS", "polyreactivity (PSR sort gate)": "low polyreactivity"}, {"sequence": "QVQLVESGGGLVQAGGSLRLSCAASGRIFRSNTMGWYRQAPGKERELVAAITRRGGSTYYADSVKGRFTISRDNAKNTVYLQLNSLKPEDTAVYYCAAVKSYYSEYGYWGQGTQGTVSS", "polyreactivity (PSR sort gate)": "high polyreactivity"}, {"sequence": "QVQLVESGGGLVQAGGSLRLSCAASGRIFRSYAMGWSIQAPGKERELVAAITSGGSTNYADSVKGRFTISRDNAKNTVYLQMNSLKPEDTAVYYCAARWPWYGKLRYYYWGQGTQVTVSS", "polyreactivity (PSR sort gate)": "high polyreactivity"}, {"sequence": "QVQLVESGGGLVQAGGSLRLSCAASGRIFRSYAMGWYRQAPGKERELFAAISYSGGSTYYADSVKGRFTISRDNAKNTVYLQMNSLKPEDTAVYYCAALPGERKYIYYGYDYWGQGTQVTVSS", "polyreactivity (PSR sort gate)": "high polyreactivity"}, {"sequence": "QVQLVESGGGLVQAGGSLRLSCAASGRIFRSYAMGWYRQAPGKERELVAAISSGGSTNYADSVKGRFTISRDNAKNTVYLQMNSLKPEDTAVYYCAASYLYEWSRFVYDGLYYWGQGTQVTVSS", "polyreactivity (PSR sort gate)": "low polyreactivity"}, {"sequence": "QVQLVESGGGLVQAGGSLRLSCAASGRIFRSYAMGWYRQAPGKERELVASISWSGVSTSYADSVKGRFTISRDIAKNTVYLQMNSLKPEDTAVYFCAARSWYVGSGPFNYWGQGTQVTVSS", "polyreactivity (PSR sort gate)": "high polyreactivity"}, {"sequence": "QVQLVESGGGLVQAGGSLRLSCAASGRIFRTYAMGWYRQAPGKERELVAAINSGGTTYYADSVKGRFTISRDNAKNTVYLQMNSLKPEDTAVYYCNAEYYYAFLRLWYDYWGQGTQVTVSS", "polyreactivity (PSR sort gate)": "high polyreactivity"}, {"sequence": "QVQLVESGGGLVQAGGSLRLSCAASGRIFRTYTMGWYRQAPGKERELVAAITSGSSTYYADSVKGRFTISRDNAKNTVYLQMHSLKPEDTAVYYCATEWSIGRHLYTYNYWGPGTQVTVSS", "polyreactivity (PSR sort gate)": "high polyreactivity"}, {"sequence": "QVQLVESGGGLVQAGGSLRLSCAASGRIFRVNAMGWYRQAPGKERELVAAINFSGTSTYYADSVKGRFTISRDNAKNTVYLQMNSLKPEDTAVYYCNTASYVSWYVHYYYWGQGTQVTVSS", "polyreactivity (PSR sort gate)": "low polyreactivity"}, {"sequence": "QVQLVESGGGLVQAGGSLRLSCAASGRIFRVNAMGWYRQAPGKERELVAAISWIGGRTYYADSVKGRFTISRDNAKNTVYLQMNSQKPEDTAVYYCAAVGSSSTHWASRSYRYNYWGQGTQVTVSS", "polyreactivity (PSR sort gate)": "high polyreactivity"}, {"sequence": "QVQLVESGGGLVQAGGSLRLSCAASGRIFRVNGMGWDRQAPGKERELVAAIRRSGGSTYYADSVKGRFTISRDNAKNTVYLQMNSLKPEDTAVYYCAAPVRQSSYTRYDSWGQGTQVTVSS", "polyreactivity (PSR sort gate)": "high polyreactivity"}, {"sequence": "QVQLVESGGGLVQAGGSLRLSCAASGRIFRVYAMGWYRHAPGKERELVAAISGRGGSTTYADSVKGRFTISRDNAKNTVYLQMNSLKPEDTAVYYCNTAYLAKRSGRRRFNYWGHGTQVTVSS", "polyreactivity (PSR sort gate)": "low polyreactivity"}, {"sequence": "QVQLVESGGGLVQAGGSLRLSCAASGRIFRVYAMGWYRQAPGKERELVAAISWSGGRTYYADSVKGRFTISRDNAKNTVYLQMNSLKPEDTAVYYCAAVRYERGLWSDYWGQGTQVTVSS", "polyreactivity (PSR sort gate)": "high polyreactivity"}, {"sequence": "QVQLVESGGGLVQAGGSLRLSCAASGRIFRVYAMGWYRQAPGKERELVAAISYSGGSTYYADSVKGRFTISRDNAKNTVYLQMNSLKPEDTAVYYCAAIRRSSKESKGTNPYEYWGQGTQVTVSS", "polyreactivity (PSR sort gate)": "high polyreactivity"}, {"sequence": "QVQLVESGGGLVQAGGSLRLSCAASGRIFRVYTMGWYRPAPGKESELVAAISRGGSTNYADSVKGRFTISRDNAKNTVYLQMNSLKPEDTAVYYCAARYPNLRRRWYYYWGQGTQVTVSS", "polyreactivity (PSR sort gate)": "high polyreactivity"}, {"sequence": "QVQLVESGGGLVQAGGSLRLSCAASGRIFRWNVTGWYRQAPGKETELDASITSGSSTNYADSVKGRFTISRDNAKYTVFLQMNSLKPEDTAVYYSAAYGVQTYRRYSYPRGFDYWGQGTQVTVSS", "polyreactivity (PSR sort gate)": "high polyreactivity"}]}]}
